Substitutions are numbered along the chain they refer to.

B1: GH2-42 scFv (scFv, V domains shown)
VH: EVQLVESGGGLVQPGGSLRLSCAASGFTISNWGIHWVRQAPGKGLEWVAGIGPYGGYTSYADSVKGRFTISADTSKNTAYLQMNSLRAEDTAVYYCARFGFYFDGIMDYWGQGTLVTVSS
VL: DIQMTQSPSSLSASVGDRVTITCRASQDVSSGVAWYQQKPGKAPKLLISGPTGLYSGVPSRFSGSGSGTDFTLTISSLQPEDFATYYCQQYYDWPLTFGQGTKVKRG
notes: also called scFv(GH2-42); source: E. coli ER2738, secreted, in filtered culture supernatant
B2: GH2-72 scFv (scFv, V domains shown)
VH: EVQLVESGGGLVQPGGSLRLSCAASGFTISNGGIHWVRQAPGKGLEWVAYIWPSGGYTFYADSVKGRFTISADTSKNTAYLQMNSLRAEDTAVYYCARFFNNDWIGMDYWGQGTLVTVSS
VL: B1 VL with S30G, S31Y, G32F, P51T, G53W, Y92S, D93N, K105E, R106I, G107K
notes: source: E. coli ER2738, secreted, in filtered culture supernatant
B3: GH2-11 scFv (scFv, V domains shown)
VH: B1 VH with S30N, N31D, K65R, G100V, F101N, Y102W, F103D, D104F, G105Y, I106G
VL: DIQMTQSPSSLSASVGDRVTITCRASQDVGDGVAWYQQKPGKAPKLLIYSAGWLYSGVPSRFSGSGSGTDFTLTISSLQPEDFATYYCQQYYSYPITFGQGTKVEIK
notes: as for B2
B4: GH2-103 scFv (scFv, V domains shown)
VH: B1 VH with S30D, N31E, W32Y, G50F, G55W, F101H, Y102L, F103H, I106L
VL: B3 VL with G30F, D31S, Y49S, S50G, A51T, G52P, W53F, S93N, Y94W
notes: as for B2
B5: GH2-61 scFv (scFv, V domains shown)
VH: B1 VH with S30N, G52W, S59Y, G100Y, F101N, Y102H, F103H, D104G, I106V
VL: B3 VL with D31S, G32N, Y49S, S50W, A51S, G52T, W53S, Y92G, S93G, Y94W
notes: also called scFv(GH2-61); source: E. coli ER2738, secreted, in filtered culture supernatant
B6: GH2-102 scFv (scFv, V domains shown)
VH: B1 VH with S30N, N31G, W32G, G50S, E89G, F101H, Y102H, F103Y, I106H
VL: B3 VL with D31S, G32N, S50G, G52P, W53Y, S93N, Y94W, I96L
notes: as for B2
B7: GH2-38 scFv (scFv, V domains shown)
VH: B1 VH with N31D, W32G, F101D, Y102N, D104I, I106V
VL: B3 VL with G30F, D31G, S50G, A51P, G52S, W53Y, Y92S, Y94W
notes: as for B2
B8: GH2-107 scFv (scFv, V domains shown)
VH: B1 VH with W32F, G50Y, T91A, G100H, F101I, Y102H, F103N, D104L, G105W, I106G
VL: B3 VL with G30S, Y49S, S50G, W53Y, Y91F, Y94W
notes: as for B2
B9: GH2-24 scFv (scFv, V domains shown)
VH: EVQLVESGGGLVQPGGSLRLSCAASGFTIDNGSIHWVRQAPGKGLEWVAFIGPSGGYTFYADSVKGRFTISADTSKNTAYLQMNSLRAEDTAVYYCARFGWHNVDNMDYWGQGTLVTVSS
VL: B3 VL with D31W, Y49S, A51T, G52R, W53S, S93N, Y94W, I96L
notes: as for B2
B10: GH2-26 scFv (scFv, V domains shown)
VH: B1 VH with N31D, W32Y, G50F, G55W, S59Y, G100Y, Y102F, F103G, I106L
VL: B3 VL with G30S, D31S, S50G, A51T, G52S, W53S, Y92F, S93N, Y94W
notes: as for B2
B11: GH2-40 scFv (scFv, V domains shown)
VH: B1 VH with S30N, N31S, G50W, G55W, Y57F, G100D, F101G, Y102H, I106V
VL: B1 VL with S30N, S31N, P51T, T52P, G53W, Y92F, K105E, R106I, G107K
notes: as for B2
B12: GH2-101 scFv (scFv, V domains shown)
VH: B1 VH with S30N, N31S, W32Y, G50S, G55W, G100Y, F101I, Y102W, I106L
VL: B3 VL with T5A, G30S, D31N, S50G, A51T, G52T, W53S, Y94W, I96L
notes: as for B2
B13: GH2-75 scFv (scFv, V domains shown)
VH: B1 VH with F27S, S30G, W32S, G50Y, G100D, F101D, F103H, D104W, G105D, I106G
VL: DIQMTQSPSSLSASVGDRVIITCRASQDVSGYVAWYQQKPGKAPKLLIYSSGVPSRFSGSGSGTDFTLTISSLQPEDFATYYCQQYYNWPVTFGQGTKVEIK
notes: also called scFv(GH2-75); source: E. coli ER2738, secreted, in filtered culture supernatant
B14: GH2-92 scFv (scFv, V domains shown)
VH: B1 VH with S30G, G50S, Y54F, G55W, S59F, F101N, Y102H, F103Y
VL: DIQMTQSPSSLSASVGDRVTITCRASQDVNDGVAWYQQKPGKAPKLLIFGSPYLFSGVPSRFSGSGSGTDFTLTISSLQPEDFATYYCQQYFSWPITFGQGTQVGIK
notes: as for B2
B15: GH2-31 scFv (scFv, V domains shown)
VH: B1 VH with S30N, W32F, G50S, Y54F, G55W, F101N, Y102D, F103Y, I106V
VL: B3 VL with G30S, D31W, A51P, G52P, S93N, Y94W
notes: as for B2
B16: GH2-62 scFv (scFv, V domains shown)
VH: B1 VH with S30N, G52W, Y54F, S59Y, G100D, F101Y, Y102L, F103N, D104N, I106G
VL: B3 VL with D31G, G32Y, Y49F, S50G, G52S, W53G, Y91F, Y94S, I96L
notes: as for B2
B17: GH2-4 scFv (scFv, V domains shown)
VH: B9 VH with D30N, N31S, S54F, F59S, H102N, N103D, V104Y, N106F
VL: B3 VL with G30F, D31G, G52S, W53F, Y92F, S93D, Y94W
notes: as for B2
B18: GH2-8 scFv (scFv, V domains shown)
VH: GVQLVESGGGLVQPGGSLRLSCAASGFTIGSSGIHWVRQAPGKGLEWVAGIWPYWGSTYYADSVKGRFTISADTSKNTAYLQMNSLRAEDTAVYYCARFGVGYHYYMDYWGQGTLVTVSS
VL: B3 VL with D31W, G32W, Y49S, S50G, G52T, W53G, Y91S, Y92W, S93D, Y94S
notes: as for B2
B19: GH2-12 scFv (scFv, V domains shown)
VH: EVQLVESGGGLVQPGGSLRLSCAASGFTINDWGIHWVRQAPGKGLEWVAGIWPYWGYTSYADSVKGRFTISADTSKNTAYLQMNSLRAEDTAVYYCARYHVYFWWMDYWGQGTLVTVSS
VL: B3 VL with G30S, D31N, G32N, S50G, A51P, G52S, W53F, S93N
notes: as for B2
B20: GH2-55 scFv (scFv, V domains shown)
VH: EVQLVESGGGLVQPGGSLRLSCAASGFTIDGFSIHWVRQAPGKGLEWVAGIGPYGGYTSYADSVKGRFTISADTSKNTAYLQMNSLRAEDTAVYYCARFDIWHNFGMDYWGQGTLVTVSS
VL: B3 VL with G30D, D31G, G32N, Y49S, W53S, Y91S, Y92W, Y94W, I96L
notes: as for B2

The target in the test is T1, HER2-ECD (human epidermal growth factor receptor 2, extracellular domain) (Homo sapiens, UniProt P04626).
T1 construct: also called HER-ECD
The test can be described thus: ELISA. Conditions: one partner purified.
For B1, the binding result is on record as “binds”.
Turning to B2, the binding result is “binds”.
In the case of B3 it was “binds”; in that of B4, “binds”; in that of B5, “binds”.
In the case of B6 it was “binds”.
In the case of B7 it was “binds”; in that of B8, “binds”.
As for B9, the binding result is reported as “binds”.
As to B10, the binding result is “binds”.
In the case of B11 it was “binds”; in that of B12, “binds”.
In the case of B13 it was “binds”.
In the case of B14 it was “binds”; in that of B15, “binds”.
As for B16, the binding result is on record as “binds”.
Next, B17: “binds”.
Next, B18: “binds”.
In the case of B19 it was “binds”; in that of B20, “binds”.

These data come from PMC4994030 (Scientific Reports, 2016).
